According to doi:10.1101/2020.04.20.033787 (bioRxiv, 2020):

Target: SBF (^FLAGSwi4-Swi6 complex) (S. cerevisiae, UniProt P25302 1-1093; P09959 1-803)
Test: pull-down

Sequence of SBF (^FLAGSwi4-Swi6 complex) (P25302 whole entry, chain 1 of 2): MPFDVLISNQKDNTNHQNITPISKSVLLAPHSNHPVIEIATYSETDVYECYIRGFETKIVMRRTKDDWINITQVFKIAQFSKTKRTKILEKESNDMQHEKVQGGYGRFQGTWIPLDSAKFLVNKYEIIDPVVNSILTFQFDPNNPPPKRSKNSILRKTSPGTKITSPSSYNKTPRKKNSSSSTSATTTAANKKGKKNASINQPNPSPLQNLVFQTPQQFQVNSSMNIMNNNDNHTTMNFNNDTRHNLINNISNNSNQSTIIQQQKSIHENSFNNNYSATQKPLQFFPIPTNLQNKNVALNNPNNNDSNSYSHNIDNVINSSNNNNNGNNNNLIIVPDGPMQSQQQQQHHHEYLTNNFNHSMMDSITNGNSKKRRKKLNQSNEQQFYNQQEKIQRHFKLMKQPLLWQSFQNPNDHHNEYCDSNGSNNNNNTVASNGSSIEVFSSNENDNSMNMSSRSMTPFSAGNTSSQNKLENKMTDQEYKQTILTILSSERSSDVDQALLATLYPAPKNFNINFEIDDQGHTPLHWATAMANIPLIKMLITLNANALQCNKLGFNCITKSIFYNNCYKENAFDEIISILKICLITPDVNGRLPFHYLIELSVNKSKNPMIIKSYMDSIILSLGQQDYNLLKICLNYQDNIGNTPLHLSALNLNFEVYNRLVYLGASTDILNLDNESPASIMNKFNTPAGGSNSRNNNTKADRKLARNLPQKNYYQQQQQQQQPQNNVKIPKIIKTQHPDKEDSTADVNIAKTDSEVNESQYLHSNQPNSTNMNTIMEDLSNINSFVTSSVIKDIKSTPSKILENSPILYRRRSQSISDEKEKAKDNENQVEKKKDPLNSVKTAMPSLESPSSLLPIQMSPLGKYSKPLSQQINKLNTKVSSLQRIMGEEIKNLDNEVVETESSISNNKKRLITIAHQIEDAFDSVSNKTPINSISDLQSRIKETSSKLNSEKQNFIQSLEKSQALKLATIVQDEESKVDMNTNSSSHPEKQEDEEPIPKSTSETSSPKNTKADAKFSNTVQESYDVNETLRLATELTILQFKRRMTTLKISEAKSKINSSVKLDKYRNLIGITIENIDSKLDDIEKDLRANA
Sequence of SBF (^FLAGSwi4-Swi6 complex) (P09959 whole entry, chain 2 of 2): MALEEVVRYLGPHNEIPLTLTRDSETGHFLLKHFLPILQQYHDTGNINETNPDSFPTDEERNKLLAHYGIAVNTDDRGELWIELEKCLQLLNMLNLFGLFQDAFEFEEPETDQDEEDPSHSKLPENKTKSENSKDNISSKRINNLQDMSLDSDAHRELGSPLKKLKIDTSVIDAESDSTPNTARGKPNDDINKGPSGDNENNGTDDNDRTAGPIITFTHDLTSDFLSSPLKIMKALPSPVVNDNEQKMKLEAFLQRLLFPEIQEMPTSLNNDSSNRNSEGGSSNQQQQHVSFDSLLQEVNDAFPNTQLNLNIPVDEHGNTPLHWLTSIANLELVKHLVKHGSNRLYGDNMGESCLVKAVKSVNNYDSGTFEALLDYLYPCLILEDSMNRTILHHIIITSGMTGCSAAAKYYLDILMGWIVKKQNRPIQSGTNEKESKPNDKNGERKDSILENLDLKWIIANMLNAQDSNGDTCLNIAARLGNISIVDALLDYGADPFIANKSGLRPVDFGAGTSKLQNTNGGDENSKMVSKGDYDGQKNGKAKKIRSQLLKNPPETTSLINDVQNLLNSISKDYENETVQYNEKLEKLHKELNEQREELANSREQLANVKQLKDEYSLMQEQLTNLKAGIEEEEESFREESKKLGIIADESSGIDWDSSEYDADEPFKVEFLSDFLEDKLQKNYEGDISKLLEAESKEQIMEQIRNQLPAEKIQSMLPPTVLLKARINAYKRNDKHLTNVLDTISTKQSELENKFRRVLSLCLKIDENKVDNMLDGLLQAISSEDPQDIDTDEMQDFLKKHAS

binding result: binds
B1: ^GSTWhi5 (recombinant) (natural protein, S. cerevisiae, UniProt Q12416 1-295, looked up)
chain: MSLRTPKRSRTSDEQEQEQEQEQVQNPDTHVNNEHQQRPGPTTLLSTPVRLKNGFGTPSPPSPPGITKSITKSRRRPSTTSLQGIFMSPVNKRRVGITAHGRVYDHNDDGHESESEDDENEEENENQKKYDGHVSMPLLPPTTPKSRRSEVFLSPSPRLRSPPTAARRSTGERPIREISHTLRTRLNYALVKLQNGWTDKTLPELETELAPAVQTPPRRYHNRFPDSADAGTSAHTAFLQALGGHPPREEATAVETLMLLSSPTKKQQHRPVPATSAGEPTDETEPESDTEVETS
